The results in this text go back to PMC9260137 (Molecules and Cells, 2022).

The data set “SEC-MALS” concerns the molecule itself. Kind of data set: SEC-MALS.
Substrate in data set [1]: NC(=O)c1ccc[n+]([C@@H]2O[C@H](COP(=O)(O)OP(=O)(O)OC[C@H]3O[C@@H](n4cnc5c(N)ncnc54)[C@H](O)[C@@H]3O)[C@@H](O)[C@H]2O)c1
Put plainly: purified protein. Conditions: 37 °C, amino acid co-substrate not given, varied: cofactor.

Substrate in data set [2]: CC[C@H](C)[C@H](N)C(=O)O
Kind of data set: purified protein. Conditions: oxidative deamination, co-substrate NAD+, 37 °C.

Substrate in data set [3]: CC(C)C[C@H](N)C(=O)O
Put plainly: purified protein. Conditions: oxidative deamination, co-substrate NAD+, 37 °C.

Substrate in data set [4]: CC(C)[C@H](N)C(=O)O
Put plainly: purified protein. Conditions: oxidative deamination, co-substrate NAD+, 37 °C.

B1: Leucine dehydrogenase from Pseudomonas aeruginosa (enzyme)
chain: MFDMMDAARLEGLHLAQDPATGLKAIIAIHSTRLGPALGGCRYLPYPNDEAAIGDAIRLAQGMSYKAALAGLEQGGGKAVIIRPPHLDNRGALFEAFGRFIESLGGRYITAVDSGTSSADMDCIAQQTRHVTSTTQAGDPSPHTALGVFAGIRASAQARLGSDDLEGLRVAVQGLGHVGYALAEQLAAVGAELLVCDLDPGRVQLAVEQLGAHPLAPEALLSTPCDILAPCGLGGVLTSQSVSQLRCAAVAGAANNQLERPEVADELEARGILYAPDYVINSGGLIYVALKHRGADPHSITAHLARIPARLTEIYAHAQADHQSPARIADRLAERILYGPQ
In the case of B1, the “stoichiometry N” value in the data set “SEC-MALS” is 2. Besides, in the data set “purified protein [1]”, the Km is 200 ± 100 µM and the Vmax was 23200 µM/min/mg. Moreover, in the data set “purified protein [2]”, the Km turned out to be 400 ± 100 µM, the Vmax worked out at 7870 µM/min/mg, the kcat was 1.8 ± 0.1 s⁻¹ and the kcat/Km is 5800 ± 400 M⁻¹ s⁻¹. In addition, in “purified protein [3]”, the Km was determined as 1100 ± 100 µM, the Vmax was determined as 21100 µM/min/mg, the kcat was found to be 5.2 ± 0.5 s⁻¹ and the kcat/Km was determined as 4300 ± 700 M⁻¹ s⁻¹. For the same protein, in the data set “purified protein [4]”, the Km came to 500 ± 100 µM, the Vmax is 35000 µM/min/mg, the kcat amounted to 9.6 ± 0.8 s⁻¹ and the kcat/Km was found to be 14400 ± 900 M⁻¹ s⁻¹.

Broadly, the stoichiometry N is a count of units in the complex or per binding partner. As usually defined, the Km is the substrate concentration at which the rate is half of its maximum. For orientation: Vmax means the rate approached at saturating substrate. One may read the kcat as the number of substrate molecules converted per active site and unit of time at saturation. Usually kcat/Km stands for the turnover number divided by the Michaelis constant.
